This test deals with Insulin-like Growth Factor I Receptor (IGF-1R) (UniProt P08069). Nature of the test: competitive displacement of 125I-IGF-I from IGF-1R, FIG. 9B. For orientation: Displacement assays read how much labelled ligand stays bound in the presence of the test substance.
Sequence of Insulin-like Growth Factor I Receptor (IGF-1R) (P08069 31-1367 limits assumed): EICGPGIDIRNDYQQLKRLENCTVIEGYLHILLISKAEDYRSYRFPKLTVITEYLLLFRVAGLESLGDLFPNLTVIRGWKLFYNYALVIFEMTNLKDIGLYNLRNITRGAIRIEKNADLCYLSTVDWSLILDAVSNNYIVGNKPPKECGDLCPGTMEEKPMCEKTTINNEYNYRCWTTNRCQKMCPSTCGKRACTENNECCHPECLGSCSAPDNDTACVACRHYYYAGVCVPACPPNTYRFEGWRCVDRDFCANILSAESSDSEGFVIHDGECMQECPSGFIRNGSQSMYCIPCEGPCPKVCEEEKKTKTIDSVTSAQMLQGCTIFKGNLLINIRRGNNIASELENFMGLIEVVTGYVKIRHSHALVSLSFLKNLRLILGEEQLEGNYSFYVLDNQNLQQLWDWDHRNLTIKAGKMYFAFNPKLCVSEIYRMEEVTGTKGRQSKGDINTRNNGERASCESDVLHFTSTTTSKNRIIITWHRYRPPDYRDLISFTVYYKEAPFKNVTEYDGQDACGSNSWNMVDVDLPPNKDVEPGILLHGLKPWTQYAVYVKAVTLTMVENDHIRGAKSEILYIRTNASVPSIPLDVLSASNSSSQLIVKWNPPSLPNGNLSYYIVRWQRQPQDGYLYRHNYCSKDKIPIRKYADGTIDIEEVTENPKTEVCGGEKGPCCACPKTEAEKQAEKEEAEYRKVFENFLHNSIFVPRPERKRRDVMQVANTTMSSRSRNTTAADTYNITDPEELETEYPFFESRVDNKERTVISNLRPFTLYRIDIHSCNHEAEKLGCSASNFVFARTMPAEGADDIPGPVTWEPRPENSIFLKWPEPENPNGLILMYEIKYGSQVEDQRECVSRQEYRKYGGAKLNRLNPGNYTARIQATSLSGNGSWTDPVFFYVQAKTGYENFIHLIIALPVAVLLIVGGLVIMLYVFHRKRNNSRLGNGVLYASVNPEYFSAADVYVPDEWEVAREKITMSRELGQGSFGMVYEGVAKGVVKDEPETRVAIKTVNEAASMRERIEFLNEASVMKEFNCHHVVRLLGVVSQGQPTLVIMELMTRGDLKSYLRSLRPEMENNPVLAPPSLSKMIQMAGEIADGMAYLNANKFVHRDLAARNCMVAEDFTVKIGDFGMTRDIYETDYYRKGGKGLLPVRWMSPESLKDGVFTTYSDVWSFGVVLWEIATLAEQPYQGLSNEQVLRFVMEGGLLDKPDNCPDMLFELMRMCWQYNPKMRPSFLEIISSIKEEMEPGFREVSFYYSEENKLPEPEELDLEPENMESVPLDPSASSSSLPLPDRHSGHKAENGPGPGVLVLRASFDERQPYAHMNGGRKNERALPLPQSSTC

Take “4Cl-Phe^B24-KP-insulin (ligand; para-monochloro-phenylalanine (4Cl-Phe) at B24; other documents disagree on this pair)”: the fold reduction of cross-binding relative to KP-insulin or wild-type insulin was 3 fold.

For the origin of these results see US20110166064A1.
